The values below come from patent US11905525B2, “Reduction of elimination of immune responses to non-intravenous, e.g., subcutaneously administered therapeutic proteins” (ModernaTX, Inc., priority 2017, dated 2024).

The series concerns accelerated blood clearance (ABC). As to the kind of experiment: Accelerated blood clearance (ABC) upon subsequent administration of LNP with a B cell targeting agent. The format is in vivo. The note with it: combination with the LNP.

Consider “Rituximab: monoclonal antibody against the protein CD20”, for which the “ABC upon subsequent administration of LNP” value was “significantly reduced ABC”.
